Test results reported in PMC2755476, “The Sam domain of the lipid phosphatase Ship2 adopts a common model to interact with Arap3-Sam and EphA2-Sam” (BMC Structural Biology, 2009).

Assays:
[1] = molecular target: Arap3 Sam (Homo sapiens) (UniProt Q8WWN8); assay: ITC; conditions: cited from earlier work
[2] = molecular target: EphA2 Sam (Homo sapiens) (UniProt P29317); assay: ITC; conditions: cited from earlier work
[3] = molecular target: T1, Sam domain of Arap3 (Arap3-Sam), His-tag cut away with thrombin (human, UniProt Q8WWN8 1-80); assay: ITC; 25 C, VP-ITC; Shiptide (1 mM) titrated into Arap3-Sam (75 uM, His-tag cut away); 1 x PBS pH 7.7; one binding site model; repeated twice; conditions: both partners purified
T1 construct: Arap3, human, residues 1 to 80, encompassing the Sam domain (residues 4 to 68); same construct as m1 after thrombin cleavage of the His-tag; A few vector residues probably remain at the N-terminus after thrombin cleavage; source: E. coli BL21-Gold (DE3), pET15b, purified (nickel column); His-tag cut with thrombin, thrombin removed on a benzamidine column; not shown: His6, N-terminal, cleaved
T1 sequence (looked up): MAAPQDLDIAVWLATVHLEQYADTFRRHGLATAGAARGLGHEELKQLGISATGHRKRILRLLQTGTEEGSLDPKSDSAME

EphA2 Sam (Homo sapiens), sequence (P29317 901-971): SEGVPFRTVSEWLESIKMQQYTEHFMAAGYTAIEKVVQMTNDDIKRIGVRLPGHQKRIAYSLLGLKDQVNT

Molecule: Ship2 Sam (from UniProt O15357)
- Kd [1]: 100 nM
- Kd [2]: 750 nM

B1: Ship2-peptide Ac-EGLVHNGWDDLEFLSDITEEDL-NH2 (Shiptide) (peptide)
peptide: Ac-EGLVHNGWDDLEFLSDITEEDL-NH2
notes: region of Ship2-Sam, amino acids from 43 to 64. numbers count on: the Ship2-Sam construct, as in PDB 2K4P; source: synthetic peptide; purchased from the Protein/DNA Facility of the Medical College of Wisconsin
- Kd [3]: 40000 ± 7000 nM
- dH [3]: -2.6 ± 0.922 kcal/mol
- stoichiometry N [3]: 0.8 ± 0.1
